The values below come from patent publication US20210009984A1.

In this experiment the target is mannose-6-phosphate receptors (M6PR) (human). In words: cell-based or functional assay.

Take “agalsidase-beta (from UniProt P06280 32-429) (enzyme)”: the Km value, Michaelis-Menten constant that represents a half of the maximum absorption rate (intracellular absorption in CCD986SK cells, read by enzyme activity after 24 hours) was 0.0109 µM. For alpha-galactosidase-Fc fusion protein, the Km value, Michaelis-Menten constant that represents a half of the maximum absorption rate (intracellular absorption in CCD986SK cells, read by enzyme activity after 24 hours) stood at 0.0116 µM.
